Biological target: the molecule itself
Test: AUC; sedimentation velocity at 25 °C, 48,000 rpm; GDH 0.2 mg/mL with HSPB5 0.05 mg/mL, 25 mg/mL PEG and 1 M betaine, heated 10 min at 50 °C before the run; 0.1 M Na-phosphate pH 7.6, 0.01 M NaCl

B1: bovine liver glutamate dehydrogenase, heated 10 min at 50 °C (enzyme)
chain: not shown
notes: bovine liver glutamate dehydrogenase [EC 1.4.1.2-4], homohexamer of about 360 kDa; also called GDH; source: bought: Sigma-Aldrich (suspension in ammonium sulfate), desalted on a PD-10 column
stoichiometry N: 6

From PMC9737104, “Effects of Molecular Crowding and Betaine on HSPB5 Interactions, with Target Proteins Differing in the Quaternary Structure and Aggregation Mechanism” (International Journal of Molecular Sciences, 2022)
